B1: SrAOX3926: amine oxidase derived from Syncephalastrum racemosum, GenBank ID ORZ03926.1, SEQ ID NO: 30 (protein, listed as Syncephalastrum racemosum)
chain: MTVSAVIHPLDPLSPEEIRHASAIIRRERSADKTIFIFNSISLREPPKDQVLAHFGWAAGPKPAQIDRQAFVVLIDRPSGLVHEIIVSLTTSSVVSWNRKQGVQPTLHVQEMLEAEEVMLKDERVIEECRKLGIEDMSLVFADTWGVGWHKTKGKRLMQALMYMRTSPDDNQYAHPLDFTPLYDVNEQKVIDVLVAKRRNSKFERPVIPRADHQFLPEHLGEGNLRKDIKPIEIIQPEGVSFQIRGHEIDWQKWNLHIGFNYREGLVISNVSYKDMDGTVRPVFYRVSLAEMVVPYANPYEPYNHKMAFDVGEYGLGNLTNSLELGCDCVGSIFYMDGVCSDLKGDAWVIPNAICIHEEDTGLLFKHTDFRNNKAHSARSRRLVISHIVTAANYDYGLYYYFYQDGTFQYEVKATGELNTHVLAEDENPAPYGTIVAPQIDAQHHQHLFSMRIDPMVDGPTNSVAQVDVVASDLPVGHPDNAVGNAFSPITTIYANTDEAQARANGETSRYWKIINEDKIHPYTREPVGFKLMCPNTPPMLPKPGSIAYERAVFASKTVWVTPYDAEQLFPGGFYCYQSDPADRLGLPEWTKGKKDVKNKDIVLWLTFGLTHIPRVEDFPIMPVETCGFMLKPCNFFLANPGIDIPASDKHSTKSAYAHALTNGANGTGNGSTNGSSCCNKNY
B2: LcAOX: amine oxidase derived from Lichtheimia corymbifera, GenBank ID CDH56199.1, SEQ ID NO: 15 (protein, listed as Lichtheimia corymbifera)
chain: MSSSSSATPKPHPLDPLSADEIRRAAAIIREKRGQDTSYVFNSLTLKEPAKQQMMLYLGWVNSSSQPKPVTIDREVFAVLIDRPSGLVHEMTVNLDKSAVTSWNKVEGRQPTINIFEMLEAEREILKDERVKDQCRQLGITDMSMVYADPWGVGYHEIKGKRLVQALLYARTSPDDNQYAHPLDFNPLYDLNAKKVLDIVVSKRRNSSFERPVIPMANHHFLPEHLGEDRLRKDIKPIEITQPQGVSFSIRDGHQLHWQKWDMHLSFNYREGLVINNLSYRDMDSTVRPIIYRMSLAEMVVPYANPYKPYNHKMAFDVGEYGLGNLTNSLELGCDCVGKIGYLDAVLSDLNGDPWHIPNAICIHEEDTGLLFKHSDYRTGKAHSARSRRLVISHIVTAANYDYGLYYYFYQDGTIQYEVKATGELNTQVLAEDEDAAPYGTIVAPQVDAQHHQHLFSMRIDPMLDGPNNSVAEVDVVASDLPVGHPHNSVGNSFYPVTKVFNTTDEAKTMASVERHRTWKIINESKIHPYAKQPVGFKMMAHPTPPLLPKPGSIVYERAMFASKTLWVTPHNDKQLYPGGFYCYQSEPSENLGLPQWTKETQNVRDTDIVCWLNFGITHIPRVEDFPIMPIETCGIMLKPANFFLCNPGIDIPPSTRQSTKSAYANDATCCRKNNL
B3: LrHP: hypothetical protein derived from Lichtheimia ramosa, GenBank ID CDS02610.1, SEQ ID NO: 20 (protein, listed as Lichtheimia ramosa)
chain: MSSSPIKPYPLDPLTADEIRRAAALIRETRGQDTTYVFNSLTLKEPSKQQMMSYLGWTNSPSHPKPVTIDREVFAVLIDRPSGLVHEMTVNLDKNQVTRWNKVEGRQPTVNVFEMLEAEREILKDERVKEQCRQLGINDMSMVFADPWGVGYHEIKGKRLVQALMYARTSPDDNQYAHPLDFNPLYDVNAKKVIDIIVSKRRNSSFDRPVIPMANHHFLPEHLGQDRLRKDIKPIEITQPQGVSFSIRDGHQLHWQKWDMHLSFNYREGLVINNLSYRDMDGTVRPIIYRMSLSEMVVPYANPYKPYNHKMAFDVGEYGLGNLTNSLELGCDCVGKICYLDATLSDLNGDPWQIPNAICIHEEDTGLLFKHTDYRTGKAHSARSRRLVISHIVTAANYDYGLYYYFYQDGTIQYEVKATGELNTQVLAADEDAAPYGTIVAPQVDAQHHQHLFSMRIDPMVDGPNNSVAEVDVVASDLPVGHPHNSIGNSFYPVTKVFNTTDEAKTMASIERHRSWKIINENKIHPYAKQPVGFKMMAHPTPPLLPKPGSIVYERAMFASKTLWVTPYNEEQRYPGGFYCYQSEPSENLGLPQWTKETQNVRDTDIVCWLNFGITHIPRVEDFPIMPIETCGVMLKPVNFFLGNPGIDIPPSTRQSTKSAYATEATCCRKNNL
B4: SrAOX3925: amine oxidase derived from Syncephalastrum racemosum, GenBank ID ORZ03925.1, SEQ ID NO: 25 (protein, listed as Syncephalastrum racemosum)
chain: MTIVSPSHPLDPLTPSEIRHVAEIVRATRSPDDKTPRDYIFSSICLKEPHKDKTLAYLQSVSEEAAALMPEREALVILIDRPSGLVHEILVSITDEKVKSAKTLKNVQPTQHVLEMIEAEKIITKDPSVIEECRKLGITDMKNVYADPWTVGYHAQFKSSKRLMQALMYMRTSPDDNQYAHPLDFVPIYDVNAQKVVEILRQETSEASKYDRPTVPLENHQFLPEHIGVENLRKDIKPIEITQPEGVSFTVRGREIEWQNWSMHVGFNYREGVIINNVSYKDKGNVRPLFYRVSVSEMVVPYAHPKEPFNHKMAFDVGEYGLGNLTNSLELGCDCLGSIYYMDGVCNNLDGEPWVIPNAICIHEEDTGLLFKHTDYRTDKAHSARSRRLVISQIVTAANYDYGLYFYFYQDGTFQYEVKATGELNTQVFAEDENPAPYGTAVAPQVVGQHHQHLFMMRIDPMLDGRLNSVAQVDVLPSEYPVGHVENPIGNAFSPITTIYSDTTEAQAHGNLESSRTWKIINESKLHPYTKEPVGYKLVSPNTPPMLPKPGSLVYERAKFATKTIWVTPYDPDQIYPAGFYCSQSPGDDSMGLPAWTKEPQSVRGRDVVVWLTFGLTHIPRVEDFPVMPVETCGWALKACNFFLGNPGIDIPAAQKGTSKRVNGACCA
B5: LaTDH: large subunit of taurine dehydrogenase from Paracoccus denitrificans, amino acid sequence SEQ ID NO: 1, expressed in E. coli (protein)
chain: MQAIEKRAGALPYDPLYDPVTARGLGPRSDYAPTYWIGTAGAPPPDDGPVTGDMDADVVVIGSGYTGLSCALHLAKMHGIKAVVLEANGVAYGCSTRNGGQAQVSSGRLKRSQWIERWGLDVARRLHAEVCEGFDLFRGLIRDHAIDCDPQDGGHYYIAHKASAMPALEKETALLRDTFGYDARMISRDELHETVARDQEAHGAMWEADGVGIHAAKLAFGYLRAARELGARVHVDSPVQGWEYRNGVHHLRTPGGTVRARRVAVATAAYAPRSLHPRLRDRLMPIMSNSIVTRVLTPAELEAVGIRKLSPLTDTRTLRHYYRLLPDNRLQIGSRAAITGRDAANPAHLDALREGMARKFPALRGIALDYSWWGWVDVSHDMMPRITGLPDLPGAFYALGYGGNGVMYSAMAGRRMAQLVAGEAVPDLPIFNNELPHEGWRTPFRRLGQWGLYKFYHYRDERR
modifications: Paracoccus denitrificans
B6: SrEAOX: ethanolamine oxidase derived from Syncephalastrum racemosum, GenBank ID BAU20376.1, SEQ ID NO: 35 (protein, listed as Syncephalastrum racemosum)
chain: MTLPTTIHPLDPLSPEEIRHVSEIIRKQRAADETTYIFNSIALREPPKEQILAHFGWTDGPKPVQIDRQAFAVLIDRPSGLVHEIIVSITTASIVSWETKEGVQPTLHVQEMLEAEQVMLKDERVIEECRKLGIEDMSMVFADTWGVGWHKTKGKRLMQALMYMRTSPDDNQYAHPLDFTPLYDVNEQKVIDVLVAKRRNSKFERPVIPRADRQFLPEHLGEENLRKDIKPIEITQPQGVSFQIRGHEIDWQKWNLHVGFNYREGLVINNVSYKDMDGTVRPMFYRVSLAEMVVPYANPYEPYNHKMAFDVGEYGLGNLTNSLELGCDCVGSIFYMDGVCSDIKGDAWVIPNAICIHEEDTGLLFKHTDFRNNKAHSARSRRLVISHIVTAANYDYGLYYYFYQDGTFQYEVKATGELNTHVLAEDEDPAPYGTIVAPQVDAQHHQHLFSMRIDPMVDGPTNSVAQVDVVASDLPVGHPDNAVGNAFSPVTTIYADTDEARARANGETSRYWKIINETRIHPYTKEPVGFKLMCPNTPPMLPKPGSIAYERAVFASNTVWVTPYDAEQLFPGGFYCYQSDPADRLGLPEWTREKKDVKNKDIVLWLTFGLTHIPRVEDFPIMPVETCGFMLKPCNFFLANPGIDIPASDRHSSKSAYAPAVANGEYGITNGTTNGSSCCSKGH

Legend:
Type in all cases: biochemical
[1] = Oxidase activity measurement of LcAOX, LrHP, SrAOX3925, SrAOX3926, SrEAOX (4-AA/TOOS/POD, A555); details: pH 7.5; for oxidase activity of the crude enzymatic solution against EAP: crude enzyme solution, 50 mM EAP final; for oxidase activity of the crude enzymatic solution against EAP / oxidase activity against EAP after being purified: 37° C.; for oxidase activity against EAP after being purified: purified preparation
Protocol: Oxidase activity was measured for LcAOX, LrHP, SrAOX3925, SrAOX3926, SrEAOX expressed by the methods described above. After incubating 580 μl of a reagent consisting of the composition of Table 12 at 37° C. for 5 minutes, 20 μl of a substrate solution (1500 mM EAP) was added and mixed, and the amount of change at A555 (ΔAS) per 1 minute at 37° C. was measured using the spectrophotometer (U-3900, manufactured by Hitachi High-Tech Science Corporation). Subsequently, 20 μl of ion-exchanged water was added instead of the substrate solution and mixed, and the amount of change at A555 (ΔA0) per 1 minute at 37° C. was measured.
The oxidase activity was calculated based on the following formula: Oxidase activity (U/ml)=(ΔAS−ΔA0)×600.0×df/(39.2×0.5×x)=30.6×(ΔAS−ΔA0)×df/x • 39.2: Millimolar extinction coefficient (mM^−1cm^−1) of 4-AA-TOOS Condensation dye for 555 nm-wavelength light • df: Dilution rate of enzyme solution (Quantification of EAP by LrHP)

[2] = Quantification of EAP by LrHP by electrochemical methods (chronoamperometry); details: +600 mV (Ag/AgCl); 0 μM to 1400 μM and 0 μM to 170 μM EAP; FIG. 6, FIG. 7
Protocol: 20 μl of 150 mM Bicine-NaOH buffer solution (pH 7.5), 15 μl of 1.5 M potassium chloride solution, and 5 μl of LrHP solution (0.14 U/ml) were applied and mixed on a SCREEN-PRINTED ELECTRODES (manufactured by DropSens, Product Number DRP-C110). A dedicated connector (DRP-CAC) was then used to connect to ALS electrochemical analyzer 814D. Chronoamperometric measurements were performed at +600 mV (Ag/AgCl). Subsequently, 2 μl of EAP solution at each concentration was added, and the current value at 100 seconds after the initiation of measurement was recorded. Similar experiments were carried out using 5 μl of ultrapure water (ion-exchanged water) instead of LrHP solution as a control experiment.

[3] = Evaluation of substrate specificity of crude enzyme solution (PMS/DCIP, 96-well plate); details: 5 mM substrate, potassium phosphate buffer pH 8.0, PMS
Protocol: An activity measurement using 2, 6-Dichlorophenolindophenol (DCIP) was performed in a 96-well plate. […] As the substrate, taurine (manufactured by Fujifilm Wako Pure Chemical Corporation), ethanolamine phosphate (EAP, manufactured by Fujifilm Wako Pure Chemical Corporation), ethanolamine (manufactured by Tokyo Chemical Industry, Co., Ltd.), and benzylamine (manufactured by Tokyo Chemical Industry Co., Ltd.) were used.

Row | Molecule | oxidase activity of the crude enzymatic solution against EAP [1] [U/L] | oxidase activity against EAP after being purified [1] [U/ml] | also measured
1 | B1 | 0.2 | – | –
2 | B2 | 1.8 | 0.11 | –
3 | B3 | 5.8 | 0.31 | oxidase activity of purified LrHP solution used in the quantification reagent ([1]; final concentration of 50 mM EAP): 0.14 U/ml (*purified LrHP solutions); current value at 100 seconds after the initiation of measurement with increasing EAP [2]: current value also increased
4 | B4 | 2.6 | 0.16 | –
5 | B5 | – | – | degree of loss of blue color derived from DCIP (dehydrogenase activity), substrate benzylamine [3]: did not react; degree of loss of blue color derived from DCIP (dehydrogenase activity), substrate ethanolamine [3]: did not react; degree of loss of blue color derived from DCIP (dehydrogenase activity), substrate ethanolamine phosphate [3]: also reacted; degree of loss of blue color derived from DCIP (dehydrogenase activity), substrate taurine [3]: reacted most
6 | B6 | 16 | – | –
